From PMC6742648, “A potent broadly neutralizing human RSV antibody targets conserved site IV of the fusion glycoprotein” (Nature Communications, 2019) come the findings set out here.

In test [1] the target is T1, stabilized pre-fusion RSV F glycoprotein (DS-Cav1) (Human respiratory syncytial virus A, …, stabilised). Description: cell-based or functional assay.
The target in test [2] is T1, stabilized pre-fusion RSV F …. Description: SPR; Biacore T200; D25 antibody on Protein A chip captures 50 RU DS-Cav1; RB1 Fab flowed in two-fold dilutions 0.31-20 nM, 50 ul/min; 1:1 Langmuir fit. The following applies: both partners purified.
The target of test [3] is T2, post-fusion RSV F glycoprotein (F∆FP) (Human respiratory syncytial virus A, …, stabilised).
T2 construct: RSV fusion (F) glycoprotein, soluble post-fusion form F∆FP; post-fusion F structure PDB 3RRR; also called post-fusion F protein; RSV F post-Fusion; source: Expi293F, transfected, purified from culture supernatant (Ni-Sepharose, Strep-Tactin, thrombin digestion, Superdex 200)
Description: SPR; Biacore T200; Synagis antibody on Protein A chip captures 50 RU post-fusion F; RB1 Fab flowed in two-fold dilutions 200-3.12 nM, 40 s dissociation; 1:1 Langmuir fit. The settings on record: both partners purified.

B1: RB1, fully human IgG1 monoclonal antibody (antibody, V domains shown)
VH: EVQLVESGGGLVRPGRSLRLSCTVSGFSFDDSAMSWVRQAPGKGLEWISFIKSKTYGGTKEYAASVKGRFTISRDDSKNIAYLQMNSLKTEDTAVYYCTRGAPYGGNSDYYYGLDVWGQGTTVTVSS
VL: DIQMTQSPSSLSASVGDRVTITCRTSQDVRGALAWYQQKPGKAPKLLIFDASSLETGVPSRFSGSGSGTVFTLTISSLQPEDFAAYYCQQFLDFPFTFGQGTRLEIK
B1: in test [1], the “microneutralization of RSV A (Long) on HEp-2 cells, IC50 (F on the virus, strain Long)” value was determined as 2.9 ng/mL and the “microneutralization of RSV B (Washington) on HEp-2 cells, IC50 (F on the virus, subtype B strain)” value was 1.7 ng/mL.

B2: RB1 fragment antigen-binding (Fab) (Fab, V domains shown)
VH: B1 VH
VL: B1 VL
notes: Fab heavy chain of RB1 (VH as the heavy chain of m1, plus CH1 of human IgG1 up to the cleavage site); light chain of RB1, as the light chain of m1; The preparation of the Fab is told for the crystallisation; also called RB1 Fab; monovalent RB1 Fab; source: RB1 mAb (CHO-3E7, Protein A purified) cleaved into monovalent Fab with the Fab Preparation Kit (Pierce)
For the molecule B2, in test [2], the Kd is 0.022 nM, the koff amounted to 0.000164 s⁻¹ and the kon is 7.35e+06 M⁻¹ s⁻¹. Besides, in test [3], the Kd was 135 nM, the koff came to 0.15 s⁻¹ and the kon is 1.12e+06 M⁻¹ s⁻¹.
